This is an account of results in PMC3137751 (Biochemistry, 2010).

Substrate in data set [1]: O=C(O)C[C@H](C(=O)O)[C@@H](O)C(=O)O
As to the kind of experiment: Apparent S0.5 for isocitrate. Type of data set: biochemical. The note with it: pH 7.4; 24.0 °C.

Data set [2] concerns the molecule itself. As to the kind of experiment: AUC.
Data set [3] deals with the molecule itself. As to the kind of experiment: SEC. On the technique in general: In gel filtration, larger molecules generally elute earlier.
Data set [4] concerns the molecule itself. Put plainly: AUC. This is another data set of the same source.

B1: IDH1/IDH2 (Saccharomyces cerevisiae S288C) (protein)
chain 1: ATAAQAERTLPKKYGGRFTVTLIPGDGVGKEITDSVRTIFEAENIPIDWETINIKQTDHKEGVYEAVESLKRNKIGLKGLWHTPADQTGHGSLNVALRKQLDIYANVALFKSLKGVKTRIPDIDLIVIRENTEGEFSGLEHESVPGVVESLKVMTRPKTERIARFAFDFAKKYNRKSVTAVHKANIMKLGDGLFRNIITEIGQKEYPDIDVSSIIVDNASMQAVAKPHQFDVLVTPSMYGTILGNIGAALIGGPGLVAGANFGRDYAVFEPGSRHVGLDIKGQNVANPTAMILSSTLMLNHLGLNEYATRISKAVHETIAEGKHTTRDIGGSSSTTDFTNEIINKLSTM
chain 2: ATVKQPSIGRYTGKPNPSTGKYTVSFIEGDGIGPEISKSVKKIFSAANVPIEWESCDVSPIFVNGLTTIPDPAVQSITKNLVALKGPLATPIGKGHRSLNLTLRKTFGLFANVRPAKSIEGFKTTYENVDLVLIRENTEGEYSGIEHIVCPGVVQSIKLITRDASERVIRYAFEYARAIGRPRVIVVHKSTIQRLADGLFVNVAKELSKEYPDLTLETELIDNSVLKVVTNPSAYTDAVSVCPNLYGDILSDLNSGLSAGSLGLTPSANIGHKISIFEAVHGSAPDIAGQDKANPTALLLSSVMMLNHMGLTNHADQIQNAVLSTIASGPENRTGDLAGTATTSSFTEAVIKRL
With B1, the K0.5 in data set [1] was 0.53/0.10 (±0.10/0) mM.

B2: ^-5IDH1^G15A/IDH2 enzyme (complex, yeast)
chain 1: AERTLPKKYAGRFTVTLIPGDGVGKEITDSVRTIFEAENIPIDWETINIKQTDHKEGVYEAVESLKRNKIGLKGLWHTPADQTGHGSLNVALRKQLDIYANVALFKSLKGVKTRIPDIDLIVIRENTEGEFSGLEHESVPGVVESLKVMTRPKTERIARFAFDFAKKYNRKSVTAVHKANIMKLGDGLFRNIITEIGQKEYPDIDVSSIIVDNASMQAVAKPHQFDVLVTPSMYGTILGNIGAALIGGPGLVAGANFGRDYAVFEPGSRHVGLDIKGQNVANPTAMILSSTLMLNHLGLNEYATRISKAVHETIAEGKHTTRDIGGSSSTTDFTNEIINKLSTM
chain 2: ATVKQPSIGRYTGKPNPSTGKYTVSFIEGDGIGPEISKSVKKIFSAANVPIEWESCDVSPIFVNGLTTIPDPAVQSITKNLVALKGPLATPIGKGHRSLNLTLRKTFGLFANVRPAKSIEGFKTTYENVDLVLIRENTEGEYSGIEHIVCPGVVQSIKLITRDASERVIRYAFEYARAIGRPRVIVVHKSTIQRLADGLFVNVAKELSKEYPDLTLETELIDNSVLKVVTNPSAYTDAVSVCPNLYGDILSDLNSGLSAGSLGLTPSANIGHKISIFEAVHGSAPDIAGQDKANPTALLLSSVMMLNHMGLTNHADQIQNAVLSTIASGPENRTGDLAGTATTSSFTEAVIKRL
By stoichiometry N is commonly meant the number of molecules, sites or subunits per partner or assembly. Regarding B2, the “stoichiometry N” value in data set [2] was more than 4.

B3: ^-5IDH1^G15D/IDH2 enzyme (complex, yeast)
chain 1: AERTLPKKYDGRFTVTLIPGDGVGKEITDSVRTIFEAENIPIDWETINIKQTDHKEGVYEAVESLKRNKIGLKGLWHTPADQTGHGSLNVALRKQLDIYANVALFKSLKGVKTRIPDIDLIVIRENTEGEFSGLEHESVPGVVESLKVMTRPKTERIARFAFDFAKKYNRKSVTAVHKANIMKLGDGLFRNIITEIGQKEYPDIDVSSIIVDNASMQAVAKPHQFDVLVTPSMYGTILGNIGAALIGGPGLVAGANFGRDYAVFEPGSRHVGLDIKGQNVANPTAMILSSTLMLNHLGLNEYATRISKAVHETIAEGKHTTRDIGGSSSTTDFTNEIINKLSTM
chain 2: ATVKQPSIGRYTGKPNPSTGKYTVSFIEGDGIGPEISKSVKKIFSAANVPIEWESCDVSPIFVNGLTTIPDPAVQSITKNLVALKGPLATPIGKGHRSLNLTLRKTFGLFANVRPAKSIEGFKTTYENVDLVLIRENTEGEYSGIEHIVCPGVVQSIKLITRDASERVIRYAFEYARAIGRPRVIVVHKSTIQRLADGLFVNVAKELSKEYPDLTLETELIDNSVLKVVTNPSAYTDAVSVCPNLYGDILSDLNSGLSAGSLGLTPSANIGHKISIFEAVHGSAPDIAGQDKANPTALLLSSVMMLNHMGLTNHADQIQNAVLSTIASGPENRTGDLAGTATTSSFTEAVIKRL
Consider B3, for which the K0.5 in data set [1] was 0.64/0.14 (±0.03/0.04) mM. The “stoichiometry N” value in data set [3] amounted to 4.

B4: ^-5IDH1^D168A/IDH2 enzyme (complex, yeast)
chain 1: AERTLPKKYGGRFTVTLIPGDGVGKEITDSVRTIFEAENIPIDWETINIKQTDHKEGVYEAVESLKRNKIGLKGLWHTPADQTGHGSLNVALRKQLDIYANVALFKSLKGVKTRIPDIDLIVIRENTEGEFSGLEHESVPGVVESLKVMTRPKTERIARFAFAFAKKYNRKSVTAVHKANIMKLGDGLFRNIITEIGQKEYPDIDVSSIIVDNASMQAVAKPHQFDVLVTPSMYGTILGNIGAALIGGPGLVAGANFGRDYAVFEPGSRHVGLDIKGQNVANPTAMILSSTLMLNHLGLNEYATRISKAVHETIAEGKHTTRDIGGSSSTTDFTNEIINKLSTM
chain 2: ATVKQPSIGRYTGKPNPSTGKYTVSFIEGDGIGPEISKSVKKIFSAANVPIEWESCDVSPIFVNGLTTIPDPAVQSITKNLVALKGPLATPIGKGHRSLNLTLRKTFGLFANVRPAKSIEGFKTTYENVDLVLIRENTEGEYSGIEHIVCPGVVQSIKLITRDASERVIRYAFEYARAIGRPRVIVVHKSTIQRLADGLFVNVAKELSKEYPDLTLETELIDNSVLKVVTNPSAYTDAVSVCPNLYGDILSDLNSGLSAGSLGLTPSANIGHKISIFEAVHGSAPDIAGQDKANPTALLLSSVMMLNHMGLTNHADQIQNAVLSTIASGPENRTGDLAGTATTSSFTEAVIKRL
Take B4: the “stoichiometry N” value in data set [4] was found to be 8.

B5: truncated ^-5IDH1/IDH2 enzyme (complex, yeast)
chain 1: AERTLPKKYGGRFTVTLIPGDGVGKEITDSVRTIFEAENIPIDWETINIKQTDHKEGVYEAVESLKRNKIGLKGLWHTPADQTGHGSLNVALRKQLDIYANVALFKSLKGVKTRIPDIDLIVIRENTEGEFSGLEHESVPGVVESLKVMTRPKTERIARFAFDFAKKYNRKSVTAVHKANIMKLGDGLFRNIITEIGQKEYPDIDVSSIIVDNASMQAVAKPHQFDVLVTPSMYGTILGNIGAALIGGPGLVAGANFGRDYAVFEPGSRHVGLDIKGQNVANPTAMILSSTLMLNHLGLNEYATRISKAVHETIAEGKHTTRDIGGSSSTTDFTNEIINKLSTM
chain 2: ATVKQPSIGRYTGKPNPSTGKYTVSFIEGDGIGPEISKSVKKIFSAANVPIEWESCDVSPIFVNGLTTIPDPAVQSITKNLVALKGPLATPIGKGHRSLNLTLRKTFGLFANVRPAKSIEGFKTTYENVDLVLIRENTEGEYSGIEHIVCPGVVQSIKLITRDASERVIRYAFEYARAIGRPRVIVVHKSTIQRLADGLFVNVAKELSKEYPDLTLETELIDNSVLKVVTNPSAYTDAVSVCPNLYGDILSDLNSGLSAGSLGLTPSANIGHKISIFEAVHGSAPDIAGQDKANPTALLLSSVMMLNHMGLTNHADQIQNAVLSTIASGPENRTGDLAGTATTSSFTEAVIKRL
As to B5, the K0.5 in data set [1] is recorded as 0.52/0.11 (±0.04/0.01) mM. Also, in data set [3], the “stoichiometry N” value turned out to be 8.

B6: wild-type IDH1/IDH2 enzyme (yeast NAD+-specific isocitrate dehydrogenase) (complex)
chain 1: ATAAQAERTLPKKYGGRFTVTLIPGDGVGKEITDSVRTIFEAENIPIDWETINIKQTDHKEGVYEAVESLKRNKIGLKGLWHTPADQTGHGSLNVALRKQLDIYANVALFKSLKGVKTRIPDIDLIVIRENTEGEFSGLEHESVPGVVESLKVMTRPKTERIARFAFDFAKKYNRKSVTAVHKANIMKLGDGLFRNIITEIGQKEYPDIDVSSIIVDNASMQAVAKPHQFDVLVTPSMYGTILGNIGAALIGGPGLVAGANFGRDYAVFEPGSRHVGLDIKGQNVANPTAMILSSTLMLNHLGLNEYATRISKAVHETIAEGKHTTRDIGGSSSTTDFTNEIINKLSTM
chain 2: ATVKQPSIGRYTGKPNPSTGKYTVSFIEGDGIGPEISKSVKKIFSAANVPIEWESCDVSPIFVNGLTTIPDPAVQSITKNLVALKGPLATPIGKGHRSLNLTLRKTFGLFANVRPAKSIEGFKTTYENVDLVLIRENTEGEYSGIEHIVCPGVVQSIKLITRDASERVIRYAFEYARAIGRPRVIVVHKSTIQRLADGLFVNVAKELSKEYPDLTLETELIDNSVLKVVTNPSAYTDAVSVCPNLYGDILSDLNSGLSAGSLGLTPSANIGHKISIFEAVHGSAPDIAGQDKANPTALLLSSVMMLNHMGLTNHADQIQNAVLSTIASGPENRTGDLAGTATTSSFTEAVIKRL
For the protein B6, in data set [4], the “stoichiometry N” value came out at 8.

B7: IDH1^G15D/IDH2 enzyme (complex, yeast)
chain 1: ATAAQAERTLPKKYDGRFTVTLIPGDGVGKEITDSVRTIFEAENIPIDWETINIKQTDHKEGVYEAVESLKRNKIGLKGLWHTPADQTGHGSLNVALRKQLDIYANVALFKSLKGVKTRIPDIDLIVIRENTEGEFSGLEHESVPGVVESLKVMTRPKTERIARFAFDFAKKYNRKSVTAVHKANIMKLGDGLFRNIITEIGQKEYPDIDVSSIIVDNASMQAVAKPHQFDVLVTPSMYGTILGNIGAALIGGPGLVAGANFGRDYAVFEPGSRHVGLDIKGQNVANPTAMILSSTLMLNHLGLNEYATRISKAVHETIAEGKHTTRDIGGSSSTTDFTNEIINKLSTM
chain 2: ATVKQPSIGRYTGKPNPSTGKYTVSFIEGDGIGPEISKSVKKIFSAANVPIEWESCDVSPIFVNGLTTIPDPAVQSITKNLVALKGPLATPIGKGHRSLNLTLRKTFGLFANVRPAKSIEGFKTTYENVDLVLIRENTEGEYSGIEHIVCPGVVQSIKLITRDASERVIRYAFEYARAIGRPRVIVVHKSTIQRLADGLFVNVAKELSKEYPDLTLETELIDNSVLKVVTNPSAYTDAVSVCPNLYGDILSDLNSGLSAGSLGLTPSANIGHKISIFEAVHGSAPDIAGQDKANPTALLLSSVMMLNHMGLTNHADQIQNAVLSTIASGPENRTGDLAGTATTSSFTEAVIKRL
B7: the K0.5 in data set [1] is 0.60/0.13 (±0.13/0.01) mM. Besides, the “stoichiometry N” value in data set [2] is 4.

B8: ^-5IDH1^D168K/IDH2 (Saccharomyces cerevisiae S288C; D179K) (protein)
chain 1: AERTLPKKYGGRFTVTLIPGDGVGKEITDSVRTIFEAENIPIDWETINIKQTDHKEGVYEAVESLKRNKIGLKGLWHTPADQTGHGSLNVALRKQLDIYANVALFKSLKGVKTRIPDIDLIVIRENTEGEFSGLEHESVPGVVESLKVMTRPKTERIARFAFKFAKKYNRKSVTAVHKANIMKLGDGLFRNIITEIGQKEYPDIDVSSIIVDNASMQAVAKPHQFDVLVTPSMYGTILGNIGAALIGGPGLVAGANFGRDYAVFEPGSRHVGLDIKGQNVANPTAMILSSTLMLNHLGLNEYATRISKAVHETIAEGKHTTRDIGGSSSTTDFTNEIINKLSTM
chain 2: ATVKQPSIGRYTGKPNPSTGKYTVSFIEGDGIGPEISKSVKKIFSAANVPIEWESCDVSPIFVNGLTTIPDPAVQSITKNLVALKGPLATPIGKGHRSLNLTLRKTFGLFANVRPAKSIEGFKTTYENVDLVLIRENTEGEYSGIEHIVCPGVVQSIKLITRDASERVIRYAFEYARAIGRPRVIVVHKSTIQRLADGLFVNVAKELSKEYPDLTLETELIDNSVLKVVTNPSAYTDAVSVCPNLYGDILSDLNSGLSAGSLGLTPSANIGHKISIFEAVHGSAPDIAGQDKANPTALLLSSVMMLNHMGLTNHADQIQNAVLSTIASGPENRTGDLAGTATTSSFTEAVIKRL
For B8, the K0.5 in data set [1] is given as 0.61/0.13 (±0.13/0.04) mM.
